Biological target: T1, human BAFF (B cell activating factor) (human, UniProt Q9Y275 134-285)
T1 construct: also called hBAFF
Assay: flow cytometry on cells; yeast-displayed sBCMA (wild type or mutant clone) incubated with increasing concentrations of soluble APRIL or BAFF; same reagents and protocols as the library sorts (PBS with 0.1% BSA, room temperature); KD from a one site-specific binding fit in GraphPad Prism
Details: one partner purified

T1 sequence (Q9Y275 134-285): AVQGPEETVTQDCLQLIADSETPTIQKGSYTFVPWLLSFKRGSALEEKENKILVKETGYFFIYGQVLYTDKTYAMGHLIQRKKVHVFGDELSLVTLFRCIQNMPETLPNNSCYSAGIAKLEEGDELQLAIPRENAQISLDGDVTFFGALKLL

B1: yeast-displayed mutant sBCMA V3 (S16G, H19Y, T36A, N53D) (domain or fragment, human, UniProt Q02223 1-54, looked up)
chain: MLQMAGQCSQNEYFDGLLYACIPCQLRCSSNTPPLACQRYCNASVTNSVKGTDA
notes: B cell maturation antigen (BCMA), human, extracellular domain, amino acids Met1-Ala54, with the four V3 mutations
Kd: 9 pM

Reference: article PMC9428257, “Developing high-affinity decoy receptors to treat multiple myeloma and diffuse large B cell lymphoma” (The Journal of Experimental Medicine, 2022)
